Two molecules from patent publication US20260240820A1 (ION CHAT RESEARCH CORPORATE, published 2026) can be followed below.

First the molecules themselves.
B1: Human Type I taste receptor T1R3 (receptor, UniProt Q7RTX0 21-852, looked up)
chain: APLCLSQQLRMKGDYVLGGLFPLGEAEEAGLRSRTRPSSPVCTRFSSNGLLWALAMKMAVEEINNKSDLLPGLRLGYDLFDTCSEPVVAMKPSLMFLAKAGSRDIAAYCNYTQYQPRVLAVIGPHSSELAMVTGKFFSFFLMPQVSYGASMELLSARETFPSFFRTVPSDRVQLTAAAELLQEFGWNWVAALGSDDEYGRQGLSIFSALAAARGICIAHEGLVPLPRADDSRLGKVQDVLHQVNQSSVQVVLLFASVHAAHALFNYSISSRLSPKVWVASEAWLTSDLVMGLPGMAQMGTVLGFLQRGAQLHEFPQYVKTHLALATDPAFCSALGEREQGLEEDVVGQRCPQCDCITLQNVSAGLNHHQTFSVYAAVYSVAQALHNTLQCNASGCPAQDPVKPWQLLENMYNLTFHVGGLPLRFDSSGNVDMEYDLKLWVWQGSVPRLHDVGRFNGSLRTERLKIRWHTSDNQKPVSRCSRQCQEGQVRRVKGFHSCCYDCVDCEAGSYRQNPDDIACTFCGQDEWSPERSTRCFRRRSRFLAWGEPAVLLLLLLLSLALGLVLAALGLFVHHRDSPLVQASGGPLACFGLVCLGLVCLSVLLFPGQPSPARCLAQQPLSHLPLTGCLSTLFLQAAEIFVESELPLSWADRLSGCLRGPWAWLVVLLAMLVEVALCTWYLVAFPPEVVTDWHMLPTEALVHCRTRSWVSFGLAHATNATLAFLCFLGTFLVRSQPGCYNRARGLTFAMLAYFITWVSFVPLLANVQVVLRPAVQMGALLLCVLGILAAFHLPRCYLLMRQPGLNTPEFFLGGGPGDAQGQNDGNTGNQGKHE
notes: whole, on cells; Present on the cells as a T1R3/T1R3 homodimer or as a heterodimer with T1R2 or T1R1; also called TAS1R3; hT1R3

The target of test [1] is B1. The test is described as follows: fluorescence microscopy on SH-SY5Y cells.
The target of test [2] is T1, Amyloid β peptide Aβ1-42.
T1 construct: Bought (Wako Pure Chemical Industries); also called Aβ42; amyloid β1-42 peptide
In words: assay not described.

The target in test [3] is T2, Fluorescent Aβ1-40 peptide (fluorescent label; dye and position not stated).
T2 construct: also called labeled Aβ1-40 peptide
In words: fluorescence microscopy on cell surfaces.

Where no end group is shown, it is not given here.

T2 sequence (peptide, as listed by the source): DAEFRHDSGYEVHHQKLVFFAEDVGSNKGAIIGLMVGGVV
T1 sequence (peptide, as listed by the source): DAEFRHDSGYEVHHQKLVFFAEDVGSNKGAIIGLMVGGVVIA

Take GSNKGAIIGLM (also: fluorescent label, dye and position not given here, also called fluorescent Aβ25-35 peptide) [Fluorescently labeled Aβ25-35 peptide (FL-Aβ25-35)]: the binding result in test [1] was “binds”.

Take B1: the binding result in test [2] and in test [3] was “binds” in each case.
